Entries after “also recorded” stand apart in the source; their conditions may differ.
What was measured:
[1] = Dissociation constant of RNA-fluorophore complex, titration with DFHO; assay type: binding; conditions: 50 nM RNA, one-site saturation model
Excerpt: FIG. 2A is a schematic showing the secondary structure of Squash as predicted by mFOLD (Squash: 5′-GGCUACAAGGUGAGCCCAAUAAUACGGUUUGGGUUAGGAUAGGAAGUAGAGCCGUAAACUCUCUAAGCGGUAGUC-3′ (SEQ ID NO:1)). Squash retained the main structural elements of add A-riboswitch aptamer including a 3-way junction and predicted kissing loop interactions (residues at positions 30, 31, 56, and 57, solid gray line). An additional base pair in the kissing loop between loop L2 and L3 (residues at positions 29 and 58, dotted gray line) improved fluorescence activation. […] Shown are the excitation (Ex) and emission (Em) spectra of Squash bound to DFHBI-1T and DFHO (structures shown in inset). Spectra were measured using 20 μM RNA and 2 μM of the indicated fluorogenic dye. […] Fluorescence activation was measured by incubating 200 nM dye and 10 μM RNA. By using a large excess of RNA compared to the fluorophore, it was ensured that the fluorescence observed is from 200 nM RNA-fluorophore complex. Data represent mean values±s.d. for n=3 independent experiments. The values inside the bars indicate fold activation. AU, arbitrary units. […] FIG. 2E is a bar graph showing the results of an experiment in which Squash-DFHO fluorescence was measured in buffers containing exclusively the indicated cations. […]

[2] = Kd measurements for Broccoli and Squash binding to BI; conditions: 50 nM RNA
Experimental: (§1) FIGS. 7A-7H provide photophysical and biophysical characterization of Squash. […] Excess RNA was used to ensure binding of nearly all fluorophore. […] Data represent mean values±s.d. for n=3 independent experiments. […] The fluorescence signal trace was fitted with a monoexponential curve to extract kobs. kobs was plotted as a function of total RNA (50 nM RNA) and fluorophore concentration. kon and koff were extracted as the slope and intercept, respectively. Squash koff (0.014±0.008 s^−1) is very similar to that of Corn (0.018±0.002 s^−1). kon for Squash-DFHO (162300±8100 M^−1 s^−1) is seven-times higher than Corn-DFHO (23000±3000 M^−1 s^−1) which could be due to the high folding of Squash. […]
Dissociation constants (Kd) for the RNA-fluorophore complexes were determined as described previously (Paige et al., “RNA Mimics of Green Fluorescent Protein,” Science 333:642-646 (2011) and Filonov et al., “Broccoli: Rapid Selection of an RNA Mimic of Green Fluorescent Protein by Fluorescence-Based Selection and Directed Evolution,” J. Am. Chem. Soc. 136: 16299-16308 (2014), which are hereby incorporated by reference in their entirety). In brief, the RNA aptamer at a fixed concentration (50 nM) was titrated with increasing fluorophore concentration and the resulting increase in fluorescence was recorded. […]

In vitro folding of RNAs = assay type: physicochemical; conditions: 40 mM HEPES-KOH (pH 7.4), 100 mM KCl, 0.5 mM MgCl2
Experimental: Briefly, the fluorescence intensities of two solutions were compared: one having excess fluorophore and limiting RNA, and the other with excess RNA and limiting fluorophore. This allows calculation of the percent of the aptamer that is folded. For these experiments, 0.2 μM of fluorophore (or RNA) and 10 μM of RNA (or fluorophore) was used. The signal from the limiting RNA condition was divided by the signal from the limiting fluorophore condition to determine the fraction folded.
To prepare this complex, 10 μM Squash is incubated with 0.2 μM DFHO. By having large excess of Squash, there is likely to be enough folded Squash to form 0.2 μM Squash-DFHO complex. Next, 0.2 μM Squash is incubated with excess (10 μM) DFHO.

[3] = On and off rates of aptamer binding to DFHO; conditions: 50 nM RNA
Experimental: as §1
To measure on and off rates of Squash binding to DFHO, the same protocol that was reported previously to measure kinetic rates for Spinach-DFHBI was used (Han et al., “Understanding the Photophysics of the Spinach-DFHBI RNA Aptamer-Fluorogen Complex to Improve Live-Cell RNA Imaging,” J. Am. Chem. Soc. 135:19033-19038 (2013), which is hereby incorporated by reference in its entirety). Briefly, 50 nM RNA was mixed with different amounts of DFHO and binding kinetics was monitored on the fluorimeter as fluorescence signal increases. Each fluorescence signal trace was fitted with a monoexponential curve and the observed rate constant (kobs) was extracted. […]

[4] = Potassium-dependence assay; assay type: physicochemical; conditions: buffers with K+, Na+ or Li+
Experimental: For potassium-dependence assay, separate buffers were prepared for K^+, Na^+ and Li^+. HEPES solution was neutralized with KOH, NaOH or LiOH to generate a 1 M solution (pH 7.4). RNA (1 μM final) was diluted in a buffer containing 40 mM HEPES (pH 7.4) and 0.5 mM MgCl2. Then the salts (KCl, NaCl or LiCl) were added to a final concentration of 100 mM to the corresponding solutions. Finally, DFHBI-1T or DFHO was added to the RNA solution at a final concentration of 10 μM and incubated for 20 minutes. The fluorescence was measured on a FluoroMax-4 fluorimeter.

B1: Squash: fluorogenic RNA aptamer evolved from the add A-riboswitch aptamer, binds DFHBI-1T and DFHO; SEQ ID NO: 12 (SEQ ID NO: 1) (nucleic acid)
chain: AGGUGAGCCCAAUAAUACGGUUUGGGUUAGGAUAGGAAGUAGAGCCGUAAACUCUCUAAGCG
modifications: RNA, backbone not given here
[1]
  Kd: 54 nM
[2]
  Affinity for BI: much weaker affinity than Broccoli
In vitro folding of RNAs
  % folded in vitro: approximately 80%
[3]
  koff: 0.014 ± 0.008 s⁻¹
[4]
  Fluorescence dependence on K+: fluorescent in K^+-free buffers; also recorded: not dependent on potassium

— patent US20250043290A1, “RNA SEQUENCES THAT INDUCE FLUORESCENCE OF SMALL MOLECULE FLUOROPHORES, MOLECULAR COMPLEXES, SENSORS, AND METHODS OF USE THEREOF” (CORNELL UNIVERSITY, priority 2021, published 2025)
